The values that follow come from publication PMC4490372, “Architecture of TFIIIC and its role in RNA polymerase III pre-initiation complex assembly” (Nature Communications, 2015).

Assay [1] deals with T1, Bdp1, full-length, recombinant (UniProt P46678 1-594).
T1 construct: Bdp1, subunit of TFIIIB, full-length; also called untagged Bdp1; source: E. coli BL21 Star (DE3) pRARE, purified (Ni-NTA, TEV cleavage, S200 SEC); not shown: His6, N-terminal, cleaved
T1 sequence (looked up): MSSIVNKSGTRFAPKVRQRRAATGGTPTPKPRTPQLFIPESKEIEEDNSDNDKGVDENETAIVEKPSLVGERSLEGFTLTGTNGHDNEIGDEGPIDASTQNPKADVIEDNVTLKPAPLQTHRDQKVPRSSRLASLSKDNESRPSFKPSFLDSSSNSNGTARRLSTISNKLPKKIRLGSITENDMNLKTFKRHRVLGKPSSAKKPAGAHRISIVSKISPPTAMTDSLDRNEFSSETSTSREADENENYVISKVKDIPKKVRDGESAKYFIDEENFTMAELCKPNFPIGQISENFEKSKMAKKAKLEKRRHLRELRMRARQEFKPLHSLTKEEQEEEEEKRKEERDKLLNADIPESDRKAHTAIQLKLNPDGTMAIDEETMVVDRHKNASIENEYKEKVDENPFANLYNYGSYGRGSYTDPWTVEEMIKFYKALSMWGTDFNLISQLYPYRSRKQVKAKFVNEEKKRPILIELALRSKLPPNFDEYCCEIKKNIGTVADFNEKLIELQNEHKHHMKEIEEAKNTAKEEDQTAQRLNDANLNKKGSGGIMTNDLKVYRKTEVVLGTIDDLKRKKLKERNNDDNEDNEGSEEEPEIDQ
The assay can be described thus: pull-down; 15 μg GST-tagged τ131 on Glutathione Sepharose 4B; 300 nM τ138 or Bdp1, or 1 μM Brf1–TBP; 50 mM Tris pH 7.5, 150 mM NaCl, 2 mM DTT, 0.1% Tween20; 4 °C, 4 h. Conditions: both partners purified.

In assay [2] the target is T2, τ91 (Tfc6), τB subunit of endogenous S. cerevisiae TFIIIC (S. cerevisiae, UniProt Q06339 1-672).
T2 construct: τ91 (Tfc6), subunit of S. cerevisiae TFIIIC, endogenous subunit in the purified complex; source: endogenous, purified from S. cerevisiae strain SC2342 as part of TFIIIC (TAP tag on τ60)
T2 sequence (looked up): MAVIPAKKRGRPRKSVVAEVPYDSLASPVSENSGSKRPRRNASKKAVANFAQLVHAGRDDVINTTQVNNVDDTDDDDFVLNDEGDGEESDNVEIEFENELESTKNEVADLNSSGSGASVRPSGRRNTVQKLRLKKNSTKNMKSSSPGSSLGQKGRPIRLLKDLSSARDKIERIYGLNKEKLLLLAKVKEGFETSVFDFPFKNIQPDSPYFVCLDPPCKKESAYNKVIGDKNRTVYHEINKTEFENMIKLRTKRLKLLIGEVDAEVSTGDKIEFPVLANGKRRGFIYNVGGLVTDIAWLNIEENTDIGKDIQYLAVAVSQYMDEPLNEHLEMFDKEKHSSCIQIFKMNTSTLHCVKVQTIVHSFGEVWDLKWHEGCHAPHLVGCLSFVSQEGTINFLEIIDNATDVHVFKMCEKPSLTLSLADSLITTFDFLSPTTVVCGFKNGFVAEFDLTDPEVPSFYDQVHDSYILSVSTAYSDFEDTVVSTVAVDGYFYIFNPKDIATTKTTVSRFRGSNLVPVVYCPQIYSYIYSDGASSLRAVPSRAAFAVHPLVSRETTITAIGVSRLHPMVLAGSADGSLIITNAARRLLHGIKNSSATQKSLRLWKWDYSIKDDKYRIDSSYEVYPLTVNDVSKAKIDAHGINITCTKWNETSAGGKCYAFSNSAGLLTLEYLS
The assay can be described thus: SEC; endogenous TFIIIC purified from yeast by the TAP tag on τ60 (heparin, IgG Sepharose, TEV, MonoQ), then Superose 6 10/300 in 25 mM HEPES pH 7.5, 150 mM NaCl, 1 mM DTT; SDS-PAGE of an elution peak fraction. Conditions: partners not purified.

B1: GST-tagged τ131 (123–566), wild type (domain or fragment, S. cerevisiae, UniProt P33339 123-566, looked up)
chain: VLDPEVAQLLSQANEAFVRNDLQVAERLFNEVIKKDARNFAAYETLGDIYQLQGRLNDCCNSWFLAAHLNASDWEFWKIVAILSADLDHVRQAIYCFSRVISLNPMEWESIYRRSMLYKKTGQLARALDGFQRLYMYNPYDANILRELAILYVDYDRIEDSIELYMKVFNANVERREAILAALENALDSSDEESAAEGEDADEKEPLEQDEDRQMFPDINWKKIDAKYKCIPFDWSSLNILAELFLKLAVSEVDGIKTIKKCARWIQRRESQTFWDHVPDDSEFDNRRFKNSTFDSLLAAEKEKSYNIPIDIRVRLGLLRLNTDNLVEALNHFQCLYDETFSDVADLYFEAATALTRAEKYKEAIDFFTPLLSLEEWRTTDVFKPLARCYKEIESYETAKEFYELAIKSEPDDLDIRVSLAEVYYRLNDPETFKHMLVDVVEMR
notes: also called GST-τ131; source: E. coli BL21 (DE3) Gold, purified (GST column, S200 SEC)
In the case of B1, in assay [1], the binding result was “binds”.

B2: GST-tagged τ131 (1–580), wild type (domain or fragment, S. cerevisiae, UniProt P33339 1-580, looked up)
chain: MAAGKLKKEQQNQSAERESADTGKVNDEDEEHLYGNIDDYKHLIQDEEYDDEDVPHDLQLSEDEYNSERDSSLLAEFSDYGEISEDDEEDFMNAIREASNFKVKKKKKNDKGKSYGRQRKERVLDPEVAQLLSQANEAFVRNDLQVAERLFNEVIKKDARNFAAYETLGDIYQLQGRLNDCCNSWFLAAHLNASDWEFWKIVAILSADLDHVRQAIYCFSRVISLNPMEWESIYRRSMLYKKTGQLARALDGFQRLYMYNPYDANILRELAILYVDYDRIEDSIELYMKVFNANVERREAILAALENALDSSDEESAAEGEDADEKEPLEQDEDRQMFPDINWKKIDAKYKCIPFDWSSLNILAELFLKLAVSEVDGIKTIKKCARWIQRRESQTFWDHVPDDSEFDNRRFKNSTFDSLLAAEKEKSYNIPIDIRVRLGLLRLNTDNLVEALNHFQCLYDETFSDVADLYFEAATALTRAEKYKEAIDFFTPLLSLEEWRTTDVFKPLARCYKEIESYETAKEFYELAIKSEPDDLDIRVSLAEVYYRLNDPETFKHMLVDVVEMRKHQVDETLHRISNE
notes: τ131 (Tfc4) of S. cerevisiae TFIIIC, residues 1-580 (extended N terminus and TPR array); also called GST-τ131 (1–580); longer τ131 protein; source: E. coli BL21 (DE3) Gold, purified (GST column, S200 SEC)
Regarding B2, the binding result in assay [1] is given as “binds”.

B3: τ60 (Tfc8), τB subunit of endogenous S. cerevisiae TFIIIC, fused with a C-terminal TAP-tag (natural protein, UniProt Q12308 1-588, looked up)
chain: MKLLKDLLVDRKEFEDWKNNLTWARDGTLYLTTFPDISIGQPKYAKDINCNSKNLFHVKEFPLEFENKLDFELAQQNGLLNSQPVCYPRVCKPSPIDDWMAVLSNNGNVSVFKDNKMLTNLDSKGNLSSRTYHCFEWNPIESSIVVGNEDGELQFFSIRKNSENTPEFYFESSIRLSDAGSKDWVTHIVWYEDVLVAALSNNSVFSMTVSASSHQPVSRMIQNASRRKITDLKIVDYKVVLTCPGYVHKIDLKNYSISSLKTGSLENFHIIPLNHEKESTILLMSNKTSYKVLLEDELHVTADNIIAPYLEKKFKKWSTIWNEFNNYETTLVIHGISLSPDGYSIAIVYDMERVAFKYKIASEQSFNIMFAPLYHTWTISERAVGLAWYQTYQIYNQSLPKLPENFSMNKKLLNGNYPISLDFQSYLNALMKSEEMRIIMFLNMTIDKPSILSFLEALYEYAINKKSELTNSFDLACVLSIAAILKREAPIYNGTLLMKNSFLEETFNLESFTADPETVTSTTNNTWKRCGVTLLPILTTHVKICPVSKQRVIDIKRDDLNDYGWFTRGLLERFNEISVYCGTTLEVM
notes: τ60 (Tfc8), subunit of S. cerevisiae TFIIIC, endogenous TFC8 fused with a C-terminal TAP-tag; The complex was captured on IgG Sepharose by the TAP tag and released by TEV protease before MonoQ, Superose 6 and cross-linking; not shown: TAP, C-terminal, kept
With B3, in assay [2], the binding result is “binds”.
